{
  "source": "the DeepSol protein solubility set",
  "data": [
    {"test": "soluble on expression in E. coli; label from the status in PepcDB or PDB records", "values": [
      {"sequence": "MHRSFGNLEFFRFQLSNQCPALQNIELEVPMHIERLDISEFGVEINRTSYAFQVKTDEEIDQTFDVDEFGMIDYDLVVDQNPDTILLDNRDPSNMHLELSYELQLLQNEYDRIEGLNGNDGIEDIEGLAKAREALEKRKTRYQFKYLKLMAREMGIKSQISIAREPLDQHIRFSINSPDRVPLYEEHLAYNKKIHEAQRSLLEKLFVGRPTICVKSLFIDSCFIVCIPKNMQFKVKHLSLSCNNFDEDLNAIRPLLHVSSFPLESIEVYGKWDSLDPILKTCGVLYFPGGCKIEKLLKLQNFHRKVHVNIFDALKQLPPSVKSWLENRQEIGTEYTFDISNEDQIILFLDEMKESNADRIVDEAELHVKLRMDNSTELYISYDPARDNVGRMKMKFQVQ", "soluble on expression in E. coli": "not soluble"},
      {"sequence": "MIRIDSVTKRYPDGTVAVDRLSLEIPDRSITVLVGPSGCGKTTTLRMINRMVEPSEGTILLDGADITKQPVNTLRRSMGYVIQNAGLFQHRTIVDNIATVPRMLGWGKERARSRARELMERVGLDASLARRYPYQLSGGQQQRVGVARALASDPPVLLMDEPFSAVDPVVRKGLQEELLRIQDELGKTIVFVTHDIDEAIRLGTMVAVMRTGGHLAQFAPPAELLSAPADAFVEDFLGTDRGIRRLSFFPSAGLELLTTPVVAIDSTAEQIAARGTPDVPYLLVTDVDGKALGWSEPKDLTAGKVVPERLLPYGRPFESGKDSLRAALDCAVLSPTGWAVAVDGTGRVVGVVSQETIGEAIRGAHAERRKADLAGLEHHHHHH", "soluble on expression in E. coli": "not soluble"},
      {"sequence": "MIKPYDFVPFLPYKPYDDVKAERGDGKIPIRVKTLTPVHIPSGEYTVSGDNSMIYKEFVKVNGVPVIPGTSFKGCIRSIAESISYSCLYIFDKQKKELIPEFKLEAQEKDHEKNKEQRNENGKKCIVSDMFGMPGQKSKIVFNDLRGVPNKYKLEIKGIPTSFRPNPDAEYYLENGKYKGYKFYKHGINGIQPKGNMLCEFAAENSLFEGEIIYKNLTEEQIRLLCFSLGLSGDINPKIGYGKNYFYGSIEVTSDAKWVEKAKQYKNIEKDDIKNNINLIISILNYKNAVTSVD", "soluble on expression in E. coli": "soluble"},
      {"sequence": "MSLSILNSNAALRGLLDQHLADLSREEGLAPETIRDAIERGTMVLLGNPSHPSLRPILVGQPARVKVNANIGTSPMRNHPECEMQKVDAAVEAGADTIMDLSIAGDLDAIRREMLARCPLPLGTVPLYSVAQKYIECGKDPALIDPEEIFAEIEKQAQQGVDFMTVHCGLTRRGAEWAAKGDRLLGIVSRGGSILARWMLRHDRENPLLTGYDRILDIARKYNVTLSLGDGLRPGAGADAGDAAQWEEVMVLGQLAKRGLEAGVQCMIEGPGHVPMNEVEAQIVGIKKLTHGAPLYVLGPLVIDSCPGYDHIAGAIGGALAVRSGVDFLCYLTPAEHLTLPTREDVRAGVIASRIAAQAGEVALGRPHALARELGMGKARKALDWPGMERHALDAAMVDERRGEHRNEEECAMCGKFCAVKMLRDDPQGAFEGHHHHHH", "soluble on expression in E. coli": "soluble"},
      {"sequence": "MIIPMNNKHPLPTPLVSIIIPVYNVEKYLYRCVKSILSQDYYDYEIILVDDGSTDGSGMICDELTEQHGHISVIHKPNGGQGSARNAGLNHAKGKYIWFIDSDDYISPHSLSVIMSQITQGDFDALFFPYIKSNGNILIGEAVGKYHAGVYRGQQLLLEGLVNMSMCTIVSLRSRWIDNRIFFREDIHFEDFEINPRVLKFLERAIFLDSNIIPYIYYTRLGSTMNQLDPQKRMRQTEDFLRIEKSWKEWFNLDSPEPNSYDMLMLRTGTNMLHRNLLNFVRNSNFSISTKLKLYAQYRKKGVFSWFYNGYRRDPYVGCTSVRVFWNTIGRSYILFSLFSIVEEIWKKIRK", "soluble on expression in E. coli": "not soluble"},
      {"sequence": "MGSDKIHHHHHHMKKVIPALALVLLTTGLVGCDRVEPGNVGIKVNKLGDDKGVGEVVGVGRYWTGWNTEVYIFPTFKQMKTYDEPFSFQMSDGTTIGYHIGVAYKVDPSKVTTVFQTYRKGVDDITDTDLRQKIADALNRLASKMTTDKFIDGGKSELLDAALKDIQEEMTPIGIQVMSLSYVGKPEYPPTVIDSINAKVTANQKTLQCEQEVKQREAEANMLRAEAAGQADAIRTKAQAEADAIRLRGEALRQNPNVMELEAINKWNGTLPQYMTSGANTPFIQVK", "soluble on expression in E. coli": "not soluble"},
      {"sequence": "MGSDKIHHHHHHMNKKIIEKEILSKVIKKRKEGSNKTNYGRILLICGSQSFGGAAIMASKAVVYSGAGLVTLASDMINRAPFLSSVSEAMFLDYTRTDKLINSIAKSDVILIGSGLEDSDFSFSLLKLVFQNAKTNQLLVLDGTALSMIGKRNLNIPKKPTIIMTPHQGEWQRVSGLSISEQVPVQNYKKMVDLNIDFLVLKSSATEIYALQNPREYKELNIGGPFQAIGGMGDTLAGLIAGFLGQFKNDQISVIQAATYLHSYIARNLSQKQYVTLPTRISEQIPTEMKKIIQTSKY", "soluble on expression in E. coli": "not soluble"},
      {"sequence": "MRLLLFRQRNFRNLALEAYRPPPGLSALVGANAQGKTSLLLGIHLALGGEVPLGLADLVRFGEEEAWLHAEVETELGAYRLEHRLGPGGREVLLNGKRVSLRTLWELPGSVLVSPLDLEAVLGPKEERRAYLDRLIARFSRRYAALLSAYEKALRQRNALLKAGGEGLSAWDRELARYGDEIVALRRRFLRRFAPILREVHAALAAKEAGLRLEETAGEGVLRALEASRAEERERGQTLVGPHRDDLVFLLEGRPAHRFASRGEAKTLALALRLAEHRLLGEHHGEPPLLLVDEWGEELDEARRRAVLAYAQALPQAILAGLEAPPGVPVCSVVRGVVLCPGA", "soluble on expression in E. coli": "soluble"},
      {"sequence": "MLNIFCPHCGELRSEEEFHAKGQAHIPRPLDPNACSDEEWGDYMFFRDNPRGLHHELWVHAAGCRKYFNVTRHTVTYEILETYLIGEQPSVVADGEKKPAVQGEPA", "soluble on expression in E. coli": "not soluble"},
      {"sequence": "MDTLFSLKVFRQVVQSGGFTRAADALGISTAMASKHVSHLENTVQAKLLHRNSRNLSLTEAGEEYYRQCSYALDTLDDAAQKAAGGTEKPQGLLRVTMPLWFAGSQICNWLAEYRERYPEVALELILDNRHVDLIAEGVDLALRVSQTLSPSLIARPLAEIEFALLASPDFLRRNGVPETPEEVAGLPAVLPTYTNQQKLDLTRKSDGKKYRLELTPVIRTDNTLMMREMIKAGACIGYQPLWAAEHDLRCGTLVRLLPGYAVPTDRLNAVYADRAFLSAKVRSFIDFLNEKIASRKGCRNAV", "soluble on expression in E. coli": "not soluble"},
      {"sequence": "MAAALKPSAPEIRKAAQEFINYLNKAVTPFHATQEVKDRLLQAGFTELPESGHWDIQPTSKYFVTKNRSAILAFAVGGSYKPGSGFSIVVGHTDSPCLRVKPISHQKSDKFLQVGVSTYGGGIWRTWFDRDLSVAGLVIVKNGEKLQHKLIDVKKPVLFIPNLAIHLETDRTTFKPNTETELRPILETFAAAGINAPQKPESTGFADPRNITNNHHPQFLGLIAKEAGCQPEDIVDLDLYLYDTNKAAIVGMEDEFISGARLDNQVGTYTAISGLLESLTGESFKNDPQIRIAACFDNEEVGSDSAMGASSSFTEFVLRRLSAGGSTTAFEEAIGKSMLISADQAHATHPNYSAKHEENHRPAFHGGVVVKVNVNQRYATTSTTHAALKQVAFEAQVPLQVVVVRNDSPCGSTVGPILATKLGLQTVDVGCPQLAMHSIREFADTSSIYQATTLYSTFYERLSTVLSNMQ", "soluble on expression in E. coli": "not soluble"},
      {"sequence": "ANFQYIITEKKGKNSSVGLIQLNRPKALNALCNGLIEELNQALETFEEDPAVGAIVLTGGEKAFAAGADIKEMQNRTFQDCYSGKFLSHWDHITRIKKPVIAAVNGYALGGGCELAMMCDIIYAGEKAQFGQPEILLGTIPGAGGTQRLTRAVGKSLAMEMVLTGDRISAQDAKQAGLVSKIFPVETLVEEAIQCAEKIANNSKIIVAMAKESVNAAFEMTLTEGNKLEKKLFYSTFATDDRREGMSAFVEKRKANFKDH", "soluble on expression in E. coli": "soluble"},
      {"sequence": "MGSDKIHHHHHHLNIAVNTRLLLEDRLEGIGWFTYETLKRITEQNPQHTFHFFFDRPYNDKFVFGKNVVPHVLFPQARHPFLWYIFFEWSIPFMLRKVKADAFISTDGYMPKSSKVKVLNVIHDINFEHRPQDLPKRVANYYKKNMPLFAQKATRLATVSEFSKQDLVKTYNIPADKIDVVYNGCNAAFKPIPEAEQVKVRYKHSAGRPFFLYIGSMHPRKNILNLMKAFEVFKKMTNCDMKLLLVGKAMWSNKDIQSLYHTLIYRHDIHFLGHIKTAELARIMASAHALTFVPYFEGFGIPILEALNCGVPVITSNTTSLPEVAGKAALLVNPESSEAIANAMIQIYKAPHIREKLLAQGVIQRQKFSWDKTAALLWASFEKMMR", "soluble on expression in E. coli": "not soluble"},
      {"sequence": "MATFKDFRNSVKPNWCPGCGDFSVQAAIQRAAANVGLNPDELAVISGIGCSGRISGYINSYGVHSIHGRALPIAQGVKMANRDLTVIASGGDGDGFAIGMGHTIHSIRRNIDITYIVMDNQIYGLTKGQTSPRSEAGFKTKSTPQGSIEPSLNVMEMALTAGATFVAQSFSSDLKELTQIIEAGINHKGFSLINVFSPCVTYNKVNTYDWFKENLTKLSTVEGYDPSNRMMAMQTLMENNGLVTGLIYQNTKQPSYQELVKGYSEEPLVKSDLNMDQKMFDELVAEFM", "soluble on expression in E. coli": "not soluble"},
      {"sequence": "SSRSGTDPQQRQQASEADAAAATFRANDHQHIRYNPLQDEWVLVSAHRMKRPWQGQVEPQLLKTVPRHDPLNPLCPGAIRANGEVNPQYDSTFLFDNDFPALQPDAPSPGPSDHPLFQAKSARGVCKVMCFHPWSDVTLPLMSVPEIRAVVDAWASVTEELGAQYPWVQIFENKGAMMGCSNPHPHCQVWASSFLPDIAQREERSQQAYKSQHGEPLLMEYSRQELLRKERLVLTSEHWLVLVPFWATWPYQTLLLPRRHVRRLPELTPAERDDLASIMKKLLTKYDNLFETSFPYSMGWHGAPTGSEAGANWDHWQLHAHYYPPLLRSATVRKFMVGYEMLAQAQRDLTPEQAAERLRALPEVHYHLGQKDRETATIA", "soluble on expression in E. coli": "not soluble"},
      {"sequence": "MGSDKIHHHHHHMNKTMWSIGFQKHLPINEEASLFRFETAVPQPEGRDLLVKVDAVSVNPIDVAVRKNGTETLDEPKVIGWDAVGTVIAKGASAGYFEIGDRVFYAGSFKRAGSDSEYQLVDERVVGHAPEKLSNAEAAAMPLTSLTAWEALFEQLEIDREDVQGNADKSILIINGAGGVGSIATQLAQKAGLHVIASASRPETIEWCLKHGADETVNHRNNLIDEVRNLGHQYVDYILELNNIDAHWDEMVELIKPNGRMTSITQNHEPVDLKALKHKRVTFAWEWMYTKSYYETPDMETQHVYLDEIARLLDAGELISTLTKQLSPINVENLKQAHKLVEGNHMMGKVVVENLED", "soluble on expression in E. coli": "not soluble"},
      {"sequence": "MAHHHHHHMHSAIRFSGSSSRSTSSSMEVASAAAEPPLSVSSIPRRRSADRDDALSLLEPAVRLPTSTTSKASALSQSSLRSGSHPSAAVYGDNPGSAHTASSSYTRKGDNGDALLHQPPGNPQTRVPSSFAATVNTRASEASSHSARGRAGSSRRDNLDPAAPQSRTATQPPLTHPGSVFANIPWIPPPPIYGTPLPDSSNMNRHYAYYYDPRGATLRAPFCYPDEVPLRAQEHHSDVSGAEWPKPSDLPLPSVFPMPPHVLPQLSLPAVSAPTAEAAARGMVAAPHAWAIPPPVLYPPPPPPPWWFYGTHPLPLPASSSGSSASSTGSSRHASSSSPVSARSTTRPSRHPSANAARPHAEAAAPSRHGVAVPAGSVETPVAAASRGDAGGGHAAKKPSVASSGSRYAAGHTVGTGRAARRSMGSLSASSATTSPWSATTTTAHSDLPQRVERRVYASSGSGSSEMQRSATGQTVQVAPRRTNVAQCVPPDQLQVYGDDVVQERGYSSVMTRMKHAVSAAEAYLEKMEHLYRRLRSRYEEVVMSPGKVTRYGADITADEGVEEKRHRRTAPAATTRATRGPPEKGLLHPPERPFSRQTHLQPTAPLPHAERPVSPALSAAQPSAVEPSPPLSSSSSATSATSLRRELHLLESQWQRLEELKRHGGGGTTTAVSMPAALSPSTATSTAGEDPFTNRRFLQLIKDRKHLLTSAT", "soluble on expression in E. coli": "not soluble"},
      {"sequence": "GSGIIEFHVIGNSLTPKANRRVLLWLVGLQNVFSHQLPRMPKEYIARLVFDPKHKTLALIKDGRVIGGICFRMFPTQGFTEIVFCAVTSNEQVKGYGTHLMNHLKEYHIKHNILYFLTYADEYAIGYFKKQGFSKDIKVPKSRYLGYIKDYEGATLMECELNPRIPYT", "soluble on expression in E. coli": "soluble"}
    ]}
  ]
}
